# The DeepSol protein solubility set
# Experiment: soluble on expression in E. coli; label from the status in PepcDB or PDB records
row,Sequence,soluble on expression in E. coli
1,RAKGRFFYDKTSSQQPAIIVLSGSDGRIEKAQNIAQLLASHGFTTLALAYFGLEGLASHLEKIPLEIIQEAIDYLKKSPYADSIRLGLYGRSKGAEFALLAASHYADFKCLVLNSPSYLCLEGLKQWRNSKTSSWTYQGQELPYHPFLWKDFFQRLILKKDLKNINHQAVIPVEKINGSLLLLVSKKDEVWDAYGSAITIVNRLQQKRFKYPYQVESYENCGHMMTVAYQPNHRYKKVALEKIMADTNDSWQKTL,not soluble
2,RCFRLEQTQKDARVVSVHAAMSGRSTIGEQQGHSISWRRRLSRANTWPSAAKAQAYITNVATPALTQVAEELCRKGINARLVTTKTQAVEGLDLIVEMGSEQNFRYQLFPVCNPVPQFTRKANASEKETYYRLEVCDLTGSLGYDIYGYTQEQLIDNVLDLYERHLEFLHMHSDLPGSSDLSDGATPPLFS,not soluble
3,RDPIGYEKMFSKLRGGIVHARETAKRIAASPIVEQEGELCFTLYNAVGDSVLTSTGIIIHVGTMGSAIKYMVENNWEDNPGINDKDIFTNNDCAIGNVHPCDIMTLVPIFHDEKLIGWVGGVTHVIDTGSVTPGSMSTGQVQRFGDGYMITCRKTGANDESFKDWLHESQRSVRTPKYWILDERTRIAGCHMIRDLVMEVIKEDGIDSYMRFIDEVIEEGRRGLISRIKSMTIPGKYRKVAFVDVPYAHKDIGVCSEFAKLDTIMHSPVEITINKDATWKLDFDGASRWGWHSFNCNQVSFTSGIWVMMTQTLIPTSRINDGAYFATQFRLKKGTWMNPDDRRTGHAYAWHFLVSGWSALWRGLSQAYYSRGYLEEVNSGNANTSNWLQGGGINQDGEIHAVNSFETSSCGTGACAIKDGLNHAAAIWNPEGDMGDVEIWEMAEPLLYLGRNVKANTGGYGKYRGGNGFETLRMVWGAHDWTMFFMGNGYMNSDWGMMGGYPAASGYRFEAHNTDLKNRIKNNASLPLGGDFNPTDRDYEKHISHASQVKRDKQCITTENCFDNYDLYLNYIKGGPGFGDPIERDLNAILEDLNSKQL,not soluble
4,REGITKNPTKRIIKDVETVDYPEKLIVPYIDTVHDRIVLELFRGCTRGCRFCQAGMIYRPIREKSVKRLKEILDKLVKNTGYDEISLSSLSTSDYSKLSELTDYLVDEYASNNIGISLPSLRLDNFSMEIADKIQQVRKSGLTFAPEAGTQRLRDVINKGVTEEDLENATERAFEMGWNSVKLYFMIGLPTETYEDLDGIAKLAYKV,not soluble
5,RIDNRNDEILRITGNPYHPLSHQQHIPFETPVKDAYLSLAGEAGLDGRSTACARGNGMLEIRNSPYRITQPLKRVGKRGEGKWIPISYEQLIEEVVEGGDLFGEGHVDGLRDIRDLTTPVDPENPEYGPKANQLLMTNAGNEGRDDIFKRFAFNSYGTRNFGHHGSYCGYAFRAGSGAFMNDLDKNAHLKPDFDNAEYIIFIGMSPAQAGNPFKRQARQLANARTEGSLE,not soluble
6,RKIGTAFVMGDVEEVMSRSSQLVINPYHGHKEADRDIKNPENWESVMEFAQIDGVFVLDENGIIIACGRYIEASAKDLVSKIKRGLGGRHIACASITKETKAIAVVVSESGGDITVYKD,soluble
7,RKWAEDNEVQNCMACGKGFSVTVRRHHCRQCGNIFCAECSAKNALTPSSKKPVRVCDACFNDLQG,soluble
8,RLLLNGDGTPVGGAWNFDAENRKALPKGVAAPYPMRFSADAITRDVLTLVAERFASHYGSLDTFDYPVTQADAQALWEYFLDFGLAGFGDYQDAMATDEPFLFHARISAALNIGLLDLRQICSDVESAYWSGRVALNAAEGFIRQLIGWREYVRGVYWLKM,not soluble
9,RLVLAGNGMAGIRCIEEVLKLNRHMFEIVIFGSEPHPNYNRILLSSVLQGEASLDDITLNSKDWYDKHGITLYTGETVIQIDTDQQQVITDRKRTLSYDKLIVATGSSPHILPIPGADKKGVYGFRTIEDCQALMNMAQHFQKAAVIGAGLLGLEAAVGLQHLGMDVSVIHHSAGIMQKQLDQTAARLLQTELEQKGLTFLLEKDTVSISGATKADRIHFKDGSSLKADLIVMAAGVKPNIELAVSAGIKVNRGIIVNDFMQTSEPNIYAVGECAEHNGTVYGLVAPLYEQGKALASHICGVPCEEYQGSAPSAALKIAGIDVWSAGKIQEDERTTSIKIYDEQAGVYKKALFVDDKLRVILFGDTRDKQRLLDSLLKQRDISIAKKQIIEPETSGPLFESMPSSETICQCNTVTKGAIEDAVHTNSLTTVEEVKHCTKATGSCGGCKPLVEDLLRYMTNSEYTKPASTPSFCSCTDFTEDDIIAELQRRPFTNPAEVMNQLDWKTKNGCSTCVPAIQYYLEMLYPGFVQPEPATEETCILIPQMYGGRTNAEQLRTIANIIEAYSIPDVSITHGQRLKLSGIKPADLPNMKKDLKMPVYTNEHRHALQSIKACTCGQNRSIQQLAAQIERQLEMLPLPAPISISLSCETDCTEAALQDVGAIRTQAGWDIHIGGVRGTHARSGALFCVTENEDSTAGMIKGLIQYYRETDHYLEGVHQWIDRLGIVHIREVLFEEDLRAQLLESLQTDLSLIQNPTVETGAYKK,not soluble
10,RMSSQIRQNYSTDVEAAVNSLVNLYLQASYTYLSLGFYFDRDDVALEGVSHFFRELAEEKREGYERLLKMQNQRGGRALFQDIKKPAEDEWGKTPDAMKAAMALEKKLNQALLDLHALGSARTDPHLCDFLETHFLDEEVKLIKKMGDHLTNLHRLGGPEAGLGEYLSSKGSLSSTTKSLLSPATSEGPLAK,soluble
11,RPLQGEATNLTDNTIFRIRQLKGTWNLLIIDSGKCEEYCQEKLYTLRQVRLAQHVDKDKVQRVWLINDDIRPDQETIDKFKGTRLVLANGKDLLKEFPAENKREDHIYVVDPMGNLMMRYPRNADPRKMVGDLKRLLKLSHLEH,not soluble
12,RQDARERERLAVLAASRTALAPLDGPPQVLWTSDREEVLWASARTPDGLLVVPGTQGERVVRALDPATGDVVWERELLPPRDTAPAPNEDVAGASCVGHGAAGDLLACLASDAMTVFDERTTDIRYVAPTVVRLVLLDPQDGTVVADLSDAVAGTGTAPAYVALGDLVVVSSVVDDATRVVAVAPDGSVAWRTEVPPSTRPAPGLPGLRRADVLALGDHLVVATAEEMRLLDATGATVRTVPLADDESLGGAEGTTAFARTGLDRVTLMQVGSEVVARGEGTKVVRADHVGELPGGRVRADVDDGSDPRLVLTSDAEGLHGWDAEGVRRWSADVQVTRSAMVLAGRVHATTRADALVTFDARTGAELWRRDGLVLDQAPLADGRVLLVRERGADGAALDLVALDVADGEVAWRTPWPEGVDQLQAVFGVIVGLSYDVEGEDWSVTALG,not soluble
13,RQPEVRGGDTLNVFLAYVPEDAKAMMTTPFEAYLVNDSNYYLYYTYLSAEGKAWNNRSHGLVEPNTKLLLEEFTKDVLNEMERVAVQLIAFKDGKPAAIKPAVSVELRIDTVKFYKLHTFSASDFFEEPALIYDIVKDDVPAKQVYV,soluble
14,RQPSSLPEGLPAPLEKRVKELAQAARAAEGESRQKFFTQDINGILLDIEAQTRELSSQVRSGVYAYLASFLPCSKDALLKRARKLHLYEQGGRLKEPLQKLKEAIGRAMPEQMAKYQDECQAHTQAKVAKMLEEEKDKEQRDRICSDEEEDEEKGGRRIMGPRKKFQWNDEIRELLCQVVKIKLESQDLERNNKAQAWEDCVKGFLDAEVKPLWPKGWMQARTLFKESRRGHGHLTSILAKKKVMAPSKIKVKESSTKPDKKVSVPSGQIGGPIALPSDHQTGGLSIGASSRELPSQASGGLANPPPVNLEDSLDEDLIRNPASSVEAVSKELAALNSRAAGNS,not soluble
15,RRAKALLDFERHDDDELGFRKNDIITIISQKDEHCWVGELNGLRGWFPAKFVEVLDERSKEYSIA,soluble
16,RRKQQAPRRAAAYVSEELKAAALVDEGLDPEEHTADGEPSAKYMCPEKELARACPSYQNSPAAEFSCHEMDSESHISETSDRMADFESGSIKNEEETKEVTVPLEDTTVSDSLEQMKAVYNNFLSNSYWSNLNLNLHQPSSEKNNGSSSSSSSSSSSCGSGSFDWHQSAMAKTLQQVSQSRMLPEPSLFSTVQLYRQSSKLYGSIFTGASKFRCKDCSAAYDTLVELTVHMNETGHYRDDNHETDNNNPKRWSKPRKRSLLEMEGKEDAQKVLKCMYCGHSFESLQDLSVHMIKTKHYQKVPLKEPVTPVAAKIIPATRKKASLELELPSSPDSTGGTPKATISDTNDALQKNSNPYITPNNRYGHQNGASYAWHFEARKSQILKCMECGSSHDTLQELTAHMMVTGHFIKVTNSAMKKGKPIVETPVTPTITTLLDEKVQSVPLAATTFTSPSNTPASISPKLNVEVKKEVDKEKAVTDEKPKQKDKPGEEEEKCDISSKYHYLTENDLEESPKGGLDILKSLENTVTSAINKAQNGTPSWGGYPSIHAAYQLPNMMKLSLGSSGKSTPLKPMFGNSEIVSPTKNQTLVSPPSSQTSPMPKTNFHAMEELVKKVTEKVAKVEEKMKEPDGKLSPPKRATPSPCSSEVGEPIKMEASSDGGFRSQENSPSPPRDGCKDGSPLAEPVENGKELVKPLASSLSGSTAIITDHPPEQPFVNPLSALQSVMNIHLGKAAKPSLPALDPMSMLFKMSNSLAEKAAVATPPPLQSKKADHLDRYFYHVNNDQPIDLTKGKSDKGCSLGSVLLSPTSTAPATSSSTVTTAKTSAVVSFMSNSPLRENALSDISDMLKNLTESHTSKSSTPSSISEKSDIDGATLEEAEESTPAQKRKGRQSNWNPQHLLILQAQFAASLRQTSEGKYIMSDLSPQERMHISRFTGLSMTTISHWLANVKYQLRRTGGTKFLKNLDTGHPVFFCNDCASQIRTPSTYISHLESHLGFRLRDLSKLSTEQINSQIAQTKSPSEKMVTSSPEEDLGTSYQCKLCNRTFASKHAVKLHLSKTHGKSPEDHLLYVSELEKQ,soluble
17,RRRPLSCDAASQAGSNYPRCWNCGGPWGPGREDRFFCPQCRALQAPDPTRDYFSLMDCNRSFRVDTAKLQHRYQQLQRLVHPDFFSQRSQTEKDFSEKHSTLVNDAYKTLLAPLSRGLYLLKLHGIEIPERTDYEMDRQFLIEIMEINEKLAEAESEAAMKEIESIVKAKQKEFTDNVSSAFEQDDFEEAKEILTKMRYFSNIEEKIKLKKIPL,not soluble
18,RRRRPSSSRRLRGRGAAQMACPALGLEALQPLQPEPPPEPAFSEAQKWIEQVTGRSFGDKDFRTGLENGILLCELLNAIKPGLVKKINRLPTPIAGLDNIILFLRGCKELGLKESQLFDPSDLQDTSNRVTVKSLDYSRKLKNVLVTIYWLGKAANSCTSYSGTTLNLKEFEGLLAQMRKDTDDIESPKRSIRDSGYIDCWDSERSDSLSPPRHGRDDSFDSLDSFGSRSRQTPSPDVVLRGSSDGRGSDSESDLPHRKLPDVKKDDMSARRTSHGEPKSAVPFNQYLPNKSNQTAYVPAPLRKKKAEREEYRKSWSTATSPLGGERPFRYGPRTPVSDDAESTSMFDMRCEEEAAVQPHSRARQEQLQLINNQLREEDDKWQDDLARWKSRRRSVSQDLIKKEEERKKMEKLLAGEDGTSERRKSIKTYREIVQEKERRERELHEAYKNARSQEEAEGILQQYIERFTISEAVLERLEMPKILERSHSTEPNLSSFLNDPNPMKYLRQQSLPPPKFTATVETTIARASVLDTSMSAGSGSPSKTVTPKAVPMLTPKPYSQPKNSQDVLKTFKVDGKVSVNGETVHREEEKERECPTVAPAHSLTKSQMFEGVARVHGSPLELKQDNGSIEINIKKPNSVPQELAATTEKTEPNSQEDKNDGGKSRKGNIELASSEPQHFTTTVTRCSPTVAFVEFPSSPQLKNDVSEEKDQKKPENEMSGKVELVLSQKVVKPKSPEPEATLTFPFLDKMPEANQLHLPNLNSQVDSPSSEKSPVTTPQFKFWAWDPEEERRRQEKWQQEQERLLQERYQKEQDKLKEEWEKAQKEVEEEERRYYEEERKIIEDTVVPFTVSSSSADQLSTSSSMTEGSGTMNKIDLGNCQDEKQDRRWKKSFQGDDSDLLLKTRESDRLEEKGSLTEGALAHSGNPVSKGVHEDHQLDTEAGAPHCGTNPQLAQDPSQNQQTSNPTHSSEDVKPKTLPLDKSINHQIESPSERRKKSPREHFQAGPFSPCSPTPPGQSPNRSISGKKLCSSCGLPLGKGAAMIIETLNLYFHIQCFRCGICKGQLGDAVSGTDVRIRNGLLNCNDCYMRSRSAGQPTTL,soluble
